Where two headings read alike, the source gives them in different places. Square brackets hold non-standard residues; d marks the D form. Ends that are not written are not given here. * marks the point of attachment. Fmoc = O=C(OCC1c2ccccc2-c2ccccc21)*; Cha = N[C@@H](CC1CCCCC1)C(=O)O; ClZ = O=C(OCc1ccccc1Cl)*; Cbz = O=C(OCc1ccccc1)*; Bz = O=C(c1ccccc1)*; Myr = myristyl
T1: Gadd45β/MKK7 complex (biotin-hGadd45β with coated GST-MKK7, ELISA format) (human) (UniProt O75293)
T1 sequence (biotinylated (sites not stated), looked up) 1: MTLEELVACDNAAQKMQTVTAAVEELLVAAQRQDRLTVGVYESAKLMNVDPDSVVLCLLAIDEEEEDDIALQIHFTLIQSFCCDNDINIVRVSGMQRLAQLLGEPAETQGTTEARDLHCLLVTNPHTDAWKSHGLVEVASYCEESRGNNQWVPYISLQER
T1 sequence (biotinylated (sites not stated), looked up) 2: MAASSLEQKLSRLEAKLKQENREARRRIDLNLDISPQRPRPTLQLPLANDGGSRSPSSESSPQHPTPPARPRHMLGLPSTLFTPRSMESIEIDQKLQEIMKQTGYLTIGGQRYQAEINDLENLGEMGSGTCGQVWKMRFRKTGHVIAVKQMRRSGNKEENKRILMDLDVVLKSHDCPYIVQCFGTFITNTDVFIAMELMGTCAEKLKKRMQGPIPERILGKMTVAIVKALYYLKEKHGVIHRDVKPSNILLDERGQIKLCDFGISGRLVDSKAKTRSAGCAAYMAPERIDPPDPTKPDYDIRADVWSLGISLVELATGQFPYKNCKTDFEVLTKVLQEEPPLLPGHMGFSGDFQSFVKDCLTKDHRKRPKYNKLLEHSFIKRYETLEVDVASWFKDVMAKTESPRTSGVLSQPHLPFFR

T2: Gadd45β/MKK7 complex (biotin-hGadd45β with coated GST-MKK7, ELISA format) (human, UniProt O75293 1-160; O14733 1-419, biotinylated (sites not given))
T2 construct: not shown: glutathione S-transferase (GST) fusion partner
T2 sequence (looked up) 1: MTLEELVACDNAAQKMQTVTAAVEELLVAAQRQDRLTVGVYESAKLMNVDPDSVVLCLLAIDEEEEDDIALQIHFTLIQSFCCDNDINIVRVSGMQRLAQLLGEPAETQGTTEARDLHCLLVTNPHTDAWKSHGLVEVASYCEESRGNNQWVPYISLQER
T2 sequence (looked up) 2: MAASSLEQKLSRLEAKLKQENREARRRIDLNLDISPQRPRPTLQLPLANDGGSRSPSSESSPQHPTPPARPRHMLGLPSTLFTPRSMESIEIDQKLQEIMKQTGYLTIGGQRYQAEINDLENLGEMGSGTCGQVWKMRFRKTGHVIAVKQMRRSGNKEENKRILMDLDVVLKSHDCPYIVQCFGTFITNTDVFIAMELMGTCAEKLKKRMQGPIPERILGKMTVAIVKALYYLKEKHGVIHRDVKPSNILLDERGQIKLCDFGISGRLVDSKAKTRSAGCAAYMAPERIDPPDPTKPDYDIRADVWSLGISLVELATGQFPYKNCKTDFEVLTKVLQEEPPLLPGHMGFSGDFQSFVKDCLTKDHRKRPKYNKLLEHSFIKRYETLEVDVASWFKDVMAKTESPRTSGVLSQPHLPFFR


Experiments:
[1] = target: T1, Gadd45β/MKK7 complex (biotin-hGadd45β with coated GST-MKK7, ELISA format) (human); test: competition ELISA; coated GST-MKK7 42 nM, biotin-hGadd45β 21 nM
[2] = target: T2, Gadd45β/MKK7 complex (biotin-hGadd45β …); test: competition ELISA; coated GST-MKK7, biotin-hGadd45β; single dose
[3] = target: T2, Gadd45β/MKK7 complex (biotin-hGadd45β …); test: as above; remark: listed apart in the source

IC50 [1] [nM] | % Inhibition of Gadd45β-MKK7 binding [2] [%] | % Inhibition of Gadd45β-MKK7 binding [3] [%] | Molecule
> 5 |  |  | Ac-[Cha]-Arg-Phe-NH2
0.1 |  |  | Cbz-Tyr-Arg-Phe-NH2
0.758 |  |  | Ac-YRY-NH2 (peptide)
0.645 |  |  | Ac-YPF-NH2 (peptide)
0.158 |  |  | Z-Tyr-Glu-Phe-NH2 (mDTP2) (peptide)
> 5 |  |  | Ac-Tyr-Arg-[Cha]
0.69 |  |  | Ac-YHF-NH2 (peptide)
0.75 |  |  | H-YRY-NH2 (peptide)
0.162 |  |  | Cbz-Tyr-Asp-Phe-NH2
0.645 |  |  | H-YHF-NH2 (peptide)
 | 0 |  | Bz-YDHF-NH2 [Benzoic acid-YDHF-NH2]
 | 58 |  | Fmoc-YDHF-NH2 [Fmoc-YDHF-NH2]
> 10 |  |  | Cbz-[dY][dD][dH][dQ]-NH2 [Z-Tyr-Asp-His-Gln-NH2]
 | 84 |  | Cbz-YDHF-NH2 (also called Z-LTP1) [Z-YDHF-NH2]
 | 84 |  | Cbz-YD(OMe)HF-NH2 [Z-YD(OMe)HF-NH2]
 | 13 |  | Ac-YPRF-NH2 [Ac-YPRF-NH2]
 |  | 64 | Ac-YEKF-NH2 [Ac-YEKF-NH2]
 | 28 |  | Ac-YERA-NH2 [Ac-YERA-NH2]
 | 37 |  | Myr-YERF-NH2 [Myr-YERF-NH2]

IC50 [1] [nM] | % Inhibition of Gadd45β-MKK7 binding [2] [%] | % Inhibition of Gadd45β-MKK7 binding [3] [%] | Molecule
 | 13 |  | Ac-YEPF-NH2 [Ac-YEPF-NH2]
 |  | 27 | Ac-YEKW-NH2 [Ac-YEKW-NH2]
 | 24 |  | Bz-YERF-NH2 [Benzoic acid-YERF-NH2]
 | 78 |  | Cbz-YERF-NH2 (also called Z-LTP2) [Z-YERF-NH2]
 |  | 43 | Ac-YDRW-NH2 [Ac-YDRW-NH2]
 |  | 59 | Ac-YERW-NH2 [Ac-YERW-NH2]
 | 19 | 45 | Ac-YDRF-NH2 [Ac-YDRF-NH2]
 | 13 |  | Cbz-YDHQ-NH2 [Z-YDHQ-NH2]
 |  | 23 | Ac-YDKW-NH2 [Ac-YDKW-NH2]
 |  | 64 | Ac-YEHW-NH2 [Ac-YEHW-NH2]
 | 0 |  | Ac-YERP-NH2 [Ac-YERP-NH2]
 | 13 |  | Ac-YEAF-NH2 [Ac-YEAF-NH2]
 |  | 35 | Ac-YDKF-NH2 [Ac-YDKF-NH2]
 | 28 |  | Myr-YDHQ-NH2 [Myr-YDHQ-NH2]
 | 60 |  | Fmoc-YERF-NH2 [Fmoc-YERF-NH2]
> 5 |  |  | Cbz-[dY][dY][dE][dR][dF]-NH2 [Z-Tyr-Tyr-Glu-Arg-Phe-NH2]
 | 26 |  | Myr-YDHF-NH2 [Myr-YDHF-NH2]
> 10 |  |  | Cbz-[dY][dY][dD][dH][dQ]-NH2 [Z-Tyr-Tyr-Asp-His Gln-NH2]

The next lines start with the molecule.

Molecule | IC50 [1] [nM] | % Inhibition of Gadd45β-MKK7 binding [2] [%] | % Inhibition of Gadd45β-MKK7 binding [3] [%]
AC-Tyr-Met-Phe-NH2 (peptide) | > 10 |  | 
Ac-Tyr-Asn-Phe-NH2 (peptide) | 1.9 |  | 
Ac-Tyr-Leu-Phe-NH2 (peptide) | 1.8 |  | 
Ac-Tyr-Gln-Phe-NH2 (peptide) | > 10 |  | 
ClZ-YDHF-NH2 [2CI-Z-YDHF-NH2] |  | 38 | 
Ac-[dY][dL][dR][dF]-NH2 (also: D/L configuration not given here) [Ac-Tyr-Leu-Arg-Phe-NH2] | 5 |  | 
Ac-[dY][dN][dR][dF]-NH2 (also: D/L configuration not given here) [Ac-Tyr-Asn-Arg-Phe-NH2] | 10 |  | 
{3‑hydroxy‑4‑methoxybenzoyl}-YDHF-NH2 [3-OH-4MeO-Benzoid acid-YDHF-NH2] |  | 81 | 
Ac-[dY][dY][dR][dF]-NH2 (also: D/L configuration not given here) [Ac-Tyr-Tyr-Arg-Phe-NH2] | > 5 |  | 
ClZ-YDHQ-NH2 [2CI-Z-YDHQ-NH2] |  | 40 | 
Ac-WERF-NH2 [Ac-WERF-NH2] |  |  | 29
Ac-WERW-NH2 [Ac-WERW-NH2] |  |  | 69
Ac-WEHW-NH2 [Ac-WEHW-NH2] |  |  | 75
Ac-WEHF-NH2 [Ac-WEHF-NH2] |  |  | 36
Ac-WDRF-NH2 [Ac-WDRF-NH2] |  |  | 46
Ac-YARF-NH2 [Ac-YARF-NH2] |  | 17 | 
{3‑OH‑4MeO‑benzoic acid}-YERF-NH2 [3-OH-4MeO-Benzoid acid-YERF-NH2] |  | 86 | 
Ac-PERF-NH2 [Ac-PERF-NH2] |  | 24 | 
Ac-YDHW-NH2 [Ac-YDHW-NH2] |  |  | 58
Ac-WDHW-NH2 [Ac-WDHW-NH2] |  |  | 50
Ac-WDHF-NH2 [Ac-WDHF-NH2] |  |  | 28
Ac-WDRW-NH2 [Ac-WDRW-NH2] |  |  | 93
Ac-WDKW-NH2 [Ac-WDKW-NH2] |  |  | 69
Ac-WEKF-NH2 [Ac-WEKF-NH2] |  |  | 65
ClZ-YERF-NH2 [2CI-Z-YERF-NH2] |  | 38 | 
Ac-WEKW-NH2 [Ac-WEKW-NH2] |  |  | 65
Ac-WDKF-NH2 [Ac-WDKF-NH2] |  |  | 26
Ac-[dY][dQ][dR][dF]-NH2 (also: D/L configuration not given here) [Ac-Tyr-Gln-Arg-Phe-NH2] | 5 |  | 
Ac-[dY][dM][dR][dF]-NH2 (also: D/L configuration not given here) [Ac-Tyr-Met-Arg-Phe-NH2] | > 10 |  | 
